B1: mFAS gamma-module, construct 7 (2-1517+1870-2195) (domain or fragment, Mus musculus, UniProt P19096 2-2195, looked up)
chain: EEVVIAGMSGKLPESENLQEFWANLIGGVDMVTDDDRRWKAGLYGLPKRSGKLKDLSKFDASFFGVHPKQAHTMDPQLRLLLEVSYEAIVDGGINPASLRGTNTGVWVGVSGSEASEALSRDPETLLGYSMVGCQRAMMANRLSFFFDFKGPSIALDTACSSSLLALQNAYQAIRSGECPAALVGGINLLLKPNTSVQFMKLGMLSPDGTCRSFDDSGSGYCRSEAVVAVLLTKKSLARRVYATILNAGTNTDGSKEQGVTFPSGEVQEQLICSLYQPAGLAPESLEYIEAHGTGTKVGDPQELNGITRSLCAFRQAPLLIGSTKSNMGHPEPASGLAALTKVLLSLEHGVWAPNLHFHNPNPEIPALLDGRLQVVDRPLPVRGGNVGINSFGFGGSNVHVILQPNTRQAPAPTAHAALPHLLHASGRTLEAVQDLLEQGRQHSQDLAFVSMLNDIAATPTAAMPFRGYTVLGVEGRVQEVQQVSTNKRPLWFICSGMGTQWRGMGLSLMRLDSFRESILRSDEAVKPLGVKVSDLLLSTDERTFDDIVHAFVSLTAIQIALIDLLTSVGLKPDGIIGHSLGEVACGYADGCLSQREAVLAAYWRGQCIKDAHLPPGSMAAVGLSWEECKQRCPAGVVPACHNSEDTVTISGPQAAVNEFVEQLKQEGVFAKEVRTGGLAFHSYFMEGIAPTLLQALKKVIREPRPRSARWLSTSIPEAQWQSSLARTSSAEYNVNNLVSPVLFQEALWHIPEHAVVLEIAPHALLQAVLKRGVKSSCTIIPLMKRDHKDNLEFFLTNLGKVHLTGINVNPNALFPPVEFPAPRGTPLISPHIKWDHSQTWDVPVAEDFPNGSSSSSATVYSIDASPESPDHYLVDHCIDGRVIFPGTGYLCLVWKTLARSLGLSLEETPVVFENVSFHQATILPKTGTVALEVRLLEASHAFEVSDTGNLIVSGKVYLWEDPNSKLFDHPEVPTPPESASVSRLTQGEVYKELRLRGYDYGPQFQGICEATLEGEQGKLLWKDNWVTFMDTMLQVSILGSSQQSLQLPTRVTAIYIDPATHRQKVYRLKEDTQVADVTTSRCLGITVSGGIHISRLQTTATSRRQQEQLVPTLEKFVFTPHMEAECLSESTALQKELQLCKGLARALQTKATQQGLKAAMLGQEDPPQHGLPRLLAAACQLQLNGNLQLELGEALAQERLLLPEDPLISGLLNSQALKACVDTALENLSTLKMKVAEVLAGEGHLYSRIPALLNTQPMLQLEYTATDRHPQALKDVQTKLQQHDVAQGQWNPSDPAPSSLGALDLLVCNCALATLGDPALALDNMVAALKEGGFLLVHTVLKGHALGETLACLPSEVQPAPSLLSQEEWESLFSRKALHLVGLKRSFYGTALFLCRRAIPQEKPIFLSVEDTSFQWVDSLKSTLATSSSQPVWLTAMDCPTSGVVGLVNCLRKEPGGHRIRCILLSNLSNTSHAPKLDPGSPELQQVLKHDLVMNVYRDGAWGAFRHFQLEQDKPSKTFCPAHKSYIITGGLGGFGLELARWLVLRGAQRLVLTSRSGIRTGYQAKHIREWRRQGIQVLVSTSNVSSLEGARALIAEATKLGPVGGVFNLAMVLRDAMLENQTPELFQDVNKPKYNGTLNLDRATREACPELDYFVAFSSVSCGRGNAGQTNYGFANSTMERICEQRRHDGLPGLAVQWGAIGDVGIVLEAMGTNDTVIGGTLPQRISSCMEVLDLFLNQPHAVLSSFVLAEKKAVAHGDGDTQRDLVKAVAHILGIRDLAGINLDSTLADLGLDSLMGVEVRQILEREHDLVLPMREVRQLTLRKLQEMSSKTDSATDTT
notes: murine fatty acid synthase 2-2195 with the ER domain deleted (P1517 bridged to S1870); Made from construct 6 as template; also called γ-module
B2: mFAS beta-module, construct 8 (2-858+1104-1517+1870-2195) (domain or fragment, Mus musculus, UniProt P19096 2-2195, looked up)
chain: EEVVIAGMSGKLPESENLQEFWANLIGGVDMVTDDDRRWKAGLYGLPKRSGKLKDLSKFDASFFGVHPKQAHTMDPQLRLLLEVSYEAIVDGGINPASLRGTNTGVWVGVSGSEASEALSRDPETLLGYSMVGCQRAMMANRLSFFFDFKGPSIALDTACSSSLLALQNAYQAIRSGECPAALVGGINLLLKPNTSVQFMKLGMLSPDGTCRSFDDSGSGYCRSEAVVAVLLTKKSLARRVYATILNAGTNTDGSKEQGVTFPSGEVQEQLICSLYQPAGLAPESLEYIEAHGTGTKVGDPQELNGITRSLCAFRQAPLLIGSTKSNMGHPEPASGLAALTKVLLSLEHGVWAPNLHFHNPNPEIPALLDGRLQVVDRPLPVRGGNVGINSFGFGGSNVHVILQPNTRQAPAPTAHAALPHLLHASGRTLEAVQDLLEQGRQHSQDLAFVSMLNDIAATPTAAMPFRGYTVLGVEGRVQEVQQVSTNKRPLWFICSGMGTQWRGMGLSLMRLDSFRESILRSDEAVKPLGVKVSDLLLSTDERTFDDIVHAFVSLTAIQIALIDLLTSVGLKPDGIIGHSLGEVACGYADGCLSQREAVLAAYWRGQCIKDAHLPPGSMAAVGLSWEECKQRCPAGVVPACHNSEDTVTISGPQAAVNEFVEQLKQEGVFAKEVRTGGLAFHSYFMEGIAPTLLQALKKVIREPRPRSARWLSTSIPEAQWQSSLARTSSAEYNVNNLVSPVLFQEALWHIPEHAVVLEIAPHALLQAVLKRGVKSSCTIIPLMKRDHKDNLEFFLTNLGKVHLTGINVNPNALFPPVEFPAPRGTPLISPHIKWDHSQTWDVPVAEDFPNGSSSSSSRRQQEQLVPTLEKFVFTPHMEAECLSESTALQKELQLCKGLARALQTKATQQGLKAAMLGQEDPPQHGLPRLLAAACQLQLNGNLQLELGEALAQERLLLPEDPLISGLLNSQALKACVDTALENLSTLKMKVAEVLAGEGHLYSRIPALLNTQPMLQLEYTATDRHPQALKDVQTKLQQHDVAQGQWNPSDPAPSSLGALDLLVCNCALATLGDPALALDNMVAALKEGGFLLVHTVLKGHALGETLACLPSEVQPAPSLLSQEEWESLFSRKALHLVGLKRSFYGTALFLCRRAIPQEKPIFLSVEDTSFQWVDSLKSTLATSSSQPVWLTAMDCPTSGVVGLVNCLRKEPGGHRIRCILLSNLSNTSHAPKLDPGSPELQQVLKHDLVMNVYRDGAWGAFRHFQLEQDKPSKTFCPAHKSYIITGGLGGFGLELARWLVLRGAQRLVLTSRSGIRTGYQAKHIREWRRQGIQVLVSTSNVSSLEGARALIAEATKLGPVGGVFNLAMVLRDAMLENQTPELFQDVNKPKYNGTLNLDRATREACPELDYFVAFSSVSCGRGNAGQTNYGFANSTMERICEQRRHDGLPGLAVQWGAIGDVGIVLEAMGTNDTVIGGTLPQRISSCMEVLDLFLNQPHAVLSSFVLAEKKAVAHGDGDTQRDLVKAVAHILGIRDLAGINLDSTLADLGLDSLMGVEVRQILEREHDLVLPMREVRQLTLRKLQEMSSKTDSATDTT
notes: murine fatty acid synthase 2-2195 with the DH domain (S858 linked with S1104) and the ER domain (P1517 bridged to S1870) deleted; Made from construct 7; also called β-module

Target: the molecule itself
Test: SEC; as a1, but samples not incubated at 37 °C before the SEC run; monomer to dimer

| Protein | stoichiometry N |
| --- | --- |
| B1 | 2 |
| B2 | 2 |

Source: article doi:10.1101/379156, “Probing the Modularity of Megasynthases by Rational Engineering of a Fatty Acid Synthase (FAS) Type I” (bioRxiv, 2018)
